{"source": "patent US20190170753A1", "about": "(ICAHN SCHOOL OF MEDICINE AT MOUNT SINAI, published 2019)", "key": {"[1]": {"molecular_target": "T1, C113T109N biotin labeled HCV core peptide (hepatitis C virus, also: biotin labeled, position not given here)", "T1 construct": "also called C113T110N", "T1 peptide": "RGSRPSWGPND", "experiment": "capture EIA; Ab 15.6 ng/mL; bt-peptide 500 ng/mL (summary of Table 7)"}, "[2]": {"molecular_target": "T2, WT1STHV biotin labeled HCV core peptide (hepatitis C virus, biotin labeled (position not given))", "T2 peptide": "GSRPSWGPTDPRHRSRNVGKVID", "experiment": "capture EIA; Ab 15.6 ng/mL; bt-peptide 500 ng/mL (summary of Table 7)"}, "[3]": {"molecular_target": "T3, C113WT biotin labeled HCV core peptide (hepatitis C virus, also: biotin labeled, position not given here)", "T3 peptide": "RGSRPSWGPTD", "experiment": "capture EIA; Ab 15.6 ng/mL; bt-peptide 500 ng/mL (summary of Table 7)"}, "[4]": {"molecular_target": "T4, 92-133 biotin labeled HCV core peptide (hepatitis C virus, UniProt Q9WMX2 92-133, chain 1: biotin label (bt-pep). Its position and any spacer are not visible in the passages shown.)", "T4 construct": "Only the label 92-133 is printed", "T4 peptide": "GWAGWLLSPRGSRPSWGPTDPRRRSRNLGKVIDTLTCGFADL", "experiment": "capture EIA; Ab 15.6 ng/mL; bt-peptide 500 ng/mL (summary of Table 7)", "method": "(§1) Assay wells were coated with sheep anti-mouse IgG Fc specific antibody and incubated overnight. The coating solution was then removed; the wells blocked using BSA/tween in PBS and then washed with dH2O. […] Next, biotin labeled peptides (diluted to 500 ng/mL in block) were added, the plates incubated for 10 minutes while shaking at 700 rpm and then washed. Peroxidase conjugated streptavidin (diluted to 200 ng/mL in block) was then added to all assay wells, incubated for 20 minutes while shaking at 700 rpm and then washed. Finally, color was developed using OPD and signal quenched using 1N H₂SO₄. Signal was read at 492 nm."}, "[5]": {"molecular_target": "T5, Mut1T110N biotin labeled HCV core peptide (hepatitis C virus, biotin labeled (position not given))", "T5 peptide": "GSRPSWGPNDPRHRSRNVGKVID", "experiment": "capture EIA; Ab 15.6 ng/mL; bt-peptide 500 ng/mL (summary of Table 7)"}, "[6]": {"molecular_target": "T6, Mut6T110S biotin labeled HCV core peptide (hepatitis C virus, biotin labeled (position not given))", "experiment": "capture EIA; Ab 15.6 ng/mL; bt-peptide 500 ng/mL (summary of Table 7)"}, "[7]": {"molecular_target": "T1, C113T109N biotin labeled HCV core …", "experiment": "capture EIA; Ab 3.906 ng/mL; bt-peptide 500 ng/mL", "method": "as §1"}, "[8]": {"molecular_target": "T2, WT1STHV biotin labeled HCV core peptide", "experiment": "capture EIA; Ab 3.906 ng/mL; bt-peptide 500 ng/mL", "method": "as §1"}, "[9]": {"molecular_target": "T3, C113WT biotin labeled HCV core peptide", "experiment": "capture EIA; Ab 3.906 ng/mL; bt-peptide 500 ng/mL", "method": "as §1"}, "[10]": {"molecular_target": "T4, 92-133 biotin labeled HCV core peptide", "experiment": "capture EIA; Ab 3.906 ng/mL; bt-peptide 500 ng/mL", "method": "as §1"}, "[11]": {"molecular_target": "T5, Mut1T110N biotin labeled HCV core …", "experiment": "capture EIA; Ab 3.906 ng/mL; bt-peptide 500 ng/mL", "method": "as §1"}, "[12]": {"molecular_target": "T6, Mut6T110S biotin labeled HCV core …", "experiment": "capture EIA; Ab 3.906 ng/mL; bt-peptide 500 ng/mL", "method": "as §1"}, "HCV core peptide 51": {"molecular_target": "T7, HCV core peptide 51 (hepatitis C virus, HELM PEPTIDE1{[O=C1N[C@H]2[C@H](CS[C@H]2CCCCC(=O)[*:2])N1].S.G.S.G.R.G.S.R.P.S.W.G.P.T.D.P.R.R.R.[am]}$$$$V2.0; SMILES …)", "T7 peptide": "SGSGRGSRPSWGPTDPRRR", "experiment": "peptide EIA, 2 ug/mL IgG (summary table)", "method": "(§2) The coated plates were kept dry in a sealed foil pouch and stored at <10 degrees C. until ready for use. A peptide coated plate for each test antibody was blocked using 3% BSA in PBS with 0.5% Tween 20. The blocked plates were washed with distilled water and a 2 ug/mL solution of purified IgG from each test sample diluted in BSA block solution was added to each peptide coated well of the blocked plate and allowed to incubate at room temperature for at least one hour. Following incubation the plates were washed with distilled water. A 200 ng/mL solution of peroxidase labeled F(ab′)2 fragment goat anti-mouse IgG Fc fragment specific (Jackson Immunoresearch) in BSA block solution was added to all wells and incubated at room temperature for 30 minutes. The plates were washed with distilled water and o-phenylenediamine substrate was used as the chromagen to generate signal. Plates were read at 492 nm and the results were analyzed."}, "HCV core peptide 55": {"molecular_target": "T8, HCV core peptide 55 (hepatitis C virus, HELM PEPTIDE1{[O=C1N[C@H]2[C@H](CS[C@H]2CCCCC(=O)[*:2])N1].S.G.S.G.P.T.D.P.R.R.R.S.R.N.L.G.K.V.I.[am]}$$$$V2.0; SMILES …)", "T8 construct": "also called aa 109-123", "T8 peptide": "SGSGPTDPRRRSRNLGKVI", "experiment": "peptide EIA, 2 ug/mL IgG (summary table)", "method": "as §2"}, "HCV core peptide 48": {"molecular_target": "T9, HCV core peptide 48 (hepatitis C virus, HELM PEPTIDE1{[O=C1N[C@H]2[C@H](CS[C@H]2CCCCC(=O)[*:2])N1].S.G.S.G.G.W.L.L.S.P.R.G.S.R.P.S.W.G.P.[am]}$$$$V2.0; SMILES …)", "T9 construct": "also called aa 95-109", "T9 peptide": "SGSGGWLLSPRGSRPSWGP", "experiment": "peptide EIA, 2 ug/mL IgG (summary table)", "method": "as §2"}, "HCV core peptide 50": {"molecular_target": "T10, HCV core peptide 50 (hepatitis C virus, HELM PEPTIDE1{[O=C1N[C@H]2[C@H](CS[C@H]2CCCCC(=O)[*:2])N1].S.G.S.G.S.P.R.G.S.R.P.S.W.G.P.T.D.P.R.[am]}$$$$V2.0; SMILES …)", "T10 construct": "also called aa 99-113", "T10 peptide": "SGSGSPRGSRPSWGPTDPR", "experiment": "peptide EIA, 2 ug/mL IgG (summary table)", "method": "as §2"}, "HCV core peptide 52": {"molecular_target": "T11, HCV core peptide 52 (hepatitis C virus, HELM PEPTIDE1{[O=C1N[C@H]2[C@H](CS[C@H]2CCCCC(=O)[*:2])N1].S.G.S.G.S.R.P.S.W.G.P.T.D.P.R.R.R.S.R.[am]}$$$$V2.0; SMILES …)", "T11 peptide": "SGSGSRPSWGPTDPRRRSR", "experiment": "peptide EIA, 2 ug/mL IgG (summary table)", "method": "as §2"}, "HCV core peptide 53": {"molecular_target": "T12, HCV core peptide 53 (hepatitis C virus, HELM PEPTIDE1{[O=C1N[C@H]2[C@H](CS[C@H]2CCCCC(=O)[*:2])N1].S.G.S.G.P.S.W.G.P.T.D.P.R.R.R.S.R.N.L.[am]}$$$$V2.0; SMILES …)", "T12 peptide": "SGSGPSWGPTDPRRRSRNL", "experiment": "peptide EIA, 2 ug/mL IgG (summary table)", "method": "as §2"}, "[13]": {"molecular_target": "T1, C113T109N biotin labeled HCV core …", "experiment": "capture EIA; Ab 1.953 ng/mL; bt-peptide 500 ng/mL", "method": "as §1"}, "[14]": {"molecular_target": "T4, 92-133 biotin labeled HCV core peptide", "experiment": "capture EIA; Ab 1.953 ng/mL; bt-peptide 500 ng/mL", "method": "as §1"}}, "note": "Where no end group is shown, it is not given here."}
{"binder": "Neo4 mouse monoclonal antibody (antibody, V domains shown, Mouse hybridoma antibody, isotype IgG1, purified with Protein G; also called HCV Neo4) VH: QIQLKESGPAVIKPSQSLSLTCIVSGFSITSSVYCWQWIRQPPGKGLEWMGRICYDGSVDYSPSITSRGTISRDTSLNKVFFQLSSVTNEDTAMYYCSRENHIDYYDTTYPSFDVWGAGTTVTVSS VL: DIVLTQSPASLIVSLGQRATISCRASKSVNEYGYTYMHWYQQKPGLPPKLLIYLASNLDSGVPARFSGSGSGTDFTLNIHPVEEEDAATYYCQHSRELPYTFGGGTKLEIKR", "values": [{"measurement": "signal at 492 nm", "setting": "[1]", "value": 0.0736, "unit": "A492"}, {"measurement": "signal at 492 nm", "setting": "[2]", "value": 1.42, "unit": "A492"}, {"measurement": "signal at 492 nm", "setting": "[3]", "value": 0.0697, "unit": "A492"}, {"measurement": "signal at 492 nm", "setting": "[4]", "value": 0.806, "unit": "A492"}, {"measurement": "signal at 492 nm", "setting": "[5]", "value": 0.0771, "unit": "A492"}, {"measurement": "signal at 492 nm", "setting": "[6]", "value": 0.25, "unit": "A492"}, {"measurement": "signal at 492 nm", "setting": "[7]", "value": 0.0717, "unit": "A492"}, {"measurement": "signal at 492 nm", "setting": "[8]", "value": 0.669, "unit": "A492"}, {"measurement": "signal at 492 nm", "setting": "[9]", "value": 0.0694, "unit": "A492"}, {"measurement": "signal at 492 nm", "setting": "[10]", "value": 0.217, "unit": "A492"}, {"measurement": "signal at 492 nm", "setting": "[11]", "value": 0.0719, "unit": "A492"}, {"measurement": "signal at 492 nm", "setting": "[12]", "value": 0.0847, "unit": "A492"}, {"measurement": "OD (A492 nm)", "setting": "HCV core peptide 51", "value": 0.96, "unit": "OD"}, {"measurement": "OD (A492 nm)", "setting": "HCV core peptide 55", "value": 0.97, "unit": "OD"}, {"measurement": "OD (A492 nm)", "setting": "HCV core peptide 48", "value": 0.04, "unit": "OD"}, {"measurement": "OD (A492 nm)", "setting": "HCV core peptide 50", "value": 1.03, "unit": "OD"}, {"measurement": "OD (A492 nm)", "setting": "HCV core peptide 52", "value": 0.93, "unit": "OD"}, {"measurement": "OD (A492 nm)", "setting": "HCV core peptide 53", "value": 0.96, "unit": "OD"}, {"measurement": "signal at 492 nm", "setting": "[13]", "value": 0.0853, "unit": "A492"}, {"measurement": "signal at 492 nm", "setting": "[14]", "value": 0.129, "unit": "A492"}]}
